Values quoted from earlier work as cited in US20240156960A1 (priority 2020, published 2024).

What was measured:
SARS-CoV2 S; RBD = SARS-CoV2 S; RBD (Severe acute respiratory syndrome coronavirus 2, UniProt P0DTC2); conditions: epitope S
NL63 S = NL63 S (Human coronavirus NL63, UniProt Q6Q1S2); conditions: Protein + Epitope S, Unk
SARS-CoV2 S = SARS-CoV2 S (Severe acute respiratory syndrome coronavirus 2, UniProt P0DTC2); conditions: Protein + Epitope S, Unk
OC43 S = OC43 S (Human coronavirus OC43, UniProt P36334); conditions: Protein + Epitope S, Unk
SARS-CoV1 S = SARS-CoV1 S (Severe acute respiratory syndrome coronavirus, UniProt P59594)
[1] = tested on: SARS-CoV2, SARS-CoV1, NL63, 229E, HKU1, OC43

Chain of OC43 S (P36334 14-1353): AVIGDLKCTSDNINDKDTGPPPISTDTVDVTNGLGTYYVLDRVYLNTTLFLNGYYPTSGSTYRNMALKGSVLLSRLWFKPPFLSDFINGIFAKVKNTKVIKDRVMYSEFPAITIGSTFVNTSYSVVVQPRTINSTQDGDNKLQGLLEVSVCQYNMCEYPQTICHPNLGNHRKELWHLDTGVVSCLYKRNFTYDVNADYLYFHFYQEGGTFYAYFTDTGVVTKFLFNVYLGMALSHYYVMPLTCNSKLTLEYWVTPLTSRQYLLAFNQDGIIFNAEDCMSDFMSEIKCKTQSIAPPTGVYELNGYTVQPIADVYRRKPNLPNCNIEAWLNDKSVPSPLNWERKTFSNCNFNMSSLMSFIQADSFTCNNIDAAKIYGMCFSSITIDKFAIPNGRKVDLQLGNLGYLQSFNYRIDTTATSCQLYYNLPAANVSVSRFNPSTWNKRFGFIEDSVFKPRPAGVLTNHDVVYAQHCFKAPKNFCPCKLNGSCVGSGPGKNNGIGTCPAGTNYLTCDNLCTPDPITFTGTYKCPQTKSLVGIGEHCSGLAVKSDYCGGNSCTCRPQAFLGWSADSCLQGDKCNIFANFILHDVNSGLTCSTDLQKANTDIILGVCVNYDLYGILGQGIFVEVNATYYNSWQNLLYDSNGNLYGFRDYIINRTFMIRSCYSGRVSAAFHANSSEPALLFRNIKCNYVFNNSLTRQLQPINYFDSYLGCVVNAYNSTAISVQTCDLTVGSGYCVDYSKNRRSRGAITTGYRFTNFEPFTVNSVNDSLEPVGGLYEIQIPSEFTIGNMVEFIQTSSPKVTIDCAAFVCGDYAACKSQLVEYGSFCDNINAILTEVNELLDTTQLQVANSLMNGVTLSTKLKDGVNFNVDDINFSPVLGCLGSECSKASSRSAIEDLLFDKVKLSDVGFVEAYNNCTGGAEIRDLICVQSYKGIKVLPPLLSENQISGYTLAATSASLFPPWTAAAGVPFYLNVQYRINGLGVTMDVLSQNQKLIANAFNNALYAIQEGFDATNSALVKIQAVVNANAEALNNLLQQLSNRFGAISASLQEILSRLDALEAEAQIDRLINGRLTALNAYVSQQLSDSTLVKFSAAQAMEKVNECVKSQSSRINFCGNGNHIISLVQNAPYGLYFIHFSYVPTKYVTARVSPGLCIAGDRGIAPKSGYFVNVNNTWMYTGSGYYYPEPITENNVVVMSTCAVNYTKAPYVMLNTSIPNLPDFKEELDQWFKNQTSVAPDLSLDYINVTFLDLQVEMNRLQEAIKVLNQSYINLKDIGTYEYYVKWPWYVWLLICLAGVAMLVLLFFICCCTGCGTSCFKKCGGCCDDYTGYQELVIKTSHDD
Chain of NL63 S (Q6Q1S2 19-1356): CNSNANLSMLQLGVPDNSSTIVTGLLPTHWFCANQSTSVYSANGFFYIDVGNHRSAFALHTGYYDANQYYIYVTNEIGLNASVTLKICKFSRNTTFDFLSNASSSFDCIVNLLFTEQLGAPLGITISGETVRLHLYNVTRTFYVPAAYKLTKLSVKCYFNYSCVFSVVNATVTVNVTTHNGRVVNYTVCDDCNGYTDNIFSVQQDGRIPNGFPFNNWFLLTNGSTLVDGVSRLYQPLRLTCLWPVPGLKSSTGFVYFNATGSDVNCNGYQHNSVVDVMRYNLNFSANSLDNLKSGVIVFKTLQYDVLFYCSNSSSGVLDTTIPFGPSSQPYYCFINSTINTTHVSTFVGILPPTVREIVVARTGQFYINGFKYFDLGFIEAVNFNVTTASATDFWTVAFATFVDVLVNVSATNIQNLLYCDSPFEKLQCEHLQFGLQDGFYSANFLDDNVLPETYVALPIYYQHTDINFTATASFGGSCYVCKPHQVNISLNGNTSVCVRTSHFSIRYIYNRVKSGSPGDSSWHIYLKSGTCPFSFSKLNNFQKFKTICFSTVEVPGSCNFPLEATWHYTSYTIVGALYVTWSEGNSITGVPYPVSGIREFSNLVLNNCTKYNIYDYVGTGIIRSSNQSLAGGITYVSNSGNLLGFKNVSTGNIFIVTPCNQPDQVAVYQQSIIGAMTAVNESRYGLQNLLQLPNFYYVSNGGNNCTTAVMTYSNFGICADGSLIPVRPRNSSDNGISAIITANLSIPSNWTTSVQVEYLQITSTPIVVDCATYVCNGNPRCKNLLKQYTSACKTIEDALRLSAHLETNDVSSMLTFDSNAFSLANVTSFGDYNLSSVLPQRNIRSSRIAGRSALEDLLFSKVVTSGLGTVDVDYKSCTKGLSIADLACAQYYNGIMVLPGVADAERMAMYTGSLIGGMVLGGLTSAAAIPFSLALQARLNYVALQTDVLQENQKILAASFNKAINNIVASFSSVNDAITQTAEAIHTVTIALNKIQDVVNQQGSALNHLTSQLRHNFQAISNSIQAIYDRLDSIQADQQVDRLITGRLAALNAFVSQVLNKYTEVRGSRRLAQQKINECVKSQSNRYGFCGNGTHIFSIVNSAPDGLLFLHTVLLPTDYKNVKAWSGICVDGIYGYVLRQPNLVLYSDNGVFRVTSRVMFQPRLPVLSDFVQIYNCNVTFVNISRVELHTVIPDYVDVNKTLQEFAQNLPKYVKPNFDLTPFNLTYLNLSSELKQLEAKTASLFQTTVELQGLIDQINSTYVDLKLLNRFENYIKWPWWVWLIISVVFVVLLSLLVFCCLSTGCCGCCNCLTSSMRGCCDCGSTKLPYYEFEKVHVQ

B1: C117 (antibody, listed as Homo sapiens, V domains shown)
VH: QVQLVESGGGVVQPGRSLRLSCAASGFTFSTYAMHWVRQAPGEGLEWVAVISYDGSNTYYADSVKGRFTISRDNSKNTLYLQMNSLRAEDTAVYYCARDPIWFGELLSPPFVHFDYWGQGTLVTVSS
VL: QSVLTQPPSVSAAPGQKVTISCSGSSSNIGNNLVSWYQQLPGTAPKLLIYENNKRPSGIPDRFSGSKSGTSATLGITGLQTGDEADYYCGAWDSSLSAGGVYVFGTGTKVTVL
SARS-CoV2 S; RBD
  Binds to: SARS-CoV2

B2: 2M-8H10 (antibody, listed as Homo sapiens, V domains shown)
VH: QVQLVESGGGVVLPGRSLRLSCAASGFTFSTFAMHWVRQAPGKGLEWVAVISDEGSNKYYADSVKGRFTISRDNSRNTLYLQMNSLRAEDTAVYYCARAFYDSNWSVGSYFDSWGQGTPVTVSS
VL: DIQMTQSPDSLAVSLGERATIKCKSSQSVLHSSNNKNYLAWYQQKAGQPPSLLLYWASTRESGVPDRFSGSGSGTDFTLTISSLQAEDVAVYYCQQYYNNQWTFGQGTKVDIK
SARS-CoV2
  Binds to: SARS-CoV2

B3: mAb-88 (antibody, listed as Homo sapiens, V domains shown)
VH: QVQLVESGAEVKKPGSSVKISCKISGDTFSTNAISWLRQAPGREPEWMGGIVPLVGPASYAQRPQGRLTITADEFTNTAYLELNSLRSEDTATYYCARDSDPYTATRRHNHYWYAMDVWGQGTTVTVSS
VL: DIRLTQTPLSLPVTLGQPASISCRSSQIAMHSDGNTYLSWFHQRPGQPPRRLIYKISNRDSGVPDRFSGSGSGTDFTLKISRVEAEDIGTFYCMQGTDWPRTFGQGTKVDIK
NL63 S
  Doesn't Bind to: NL63,
SARS-CoV2 S
  Binds to: SARS-CoV2
OC43 S
  Doesn't Bind to: OC43,
SARS-CoV1 S
  Doesn't Bind to: CoV1

B4: mAb-94 (antibody, listed as Homo sapiens, V domains shown)
VH: QVQLVQSGAEVKKPGSSVKVSCKASGGMFTDYAISWVRQAPGQRLEWMGGIMPGLGSPAYAQIFRDRATISADVSTSTAYLELTSLKPEDTAVYYCARDPSILNTGNHHWYDLDIWGQGTTVTVSS
VL: DIQLTQSPLSLPVGLGQSASISCRSSQRVVHTDGNTYLNWYHQRPGQSPRRLIYKVSNRDSGVPDRFSGSGSGTDFTLRISRVEAEDVGVYYCMQSTDWPRTFGQGTKLEIK
NL63 S
  Doesn't Bind to: NL63,
SARS-CoV2 S
  Binds to: SARS-CoV2
OC43 S
  Doesn't Bind to: OC43,
SARS-CoV1 S
  Doesn't Bind to: CoV1

B5: 2M-9H1 (antibody, listed as Homo sapiens, V domains shown)
VH: EVQLLESGGGVVQPGRSLRLSCVASGFNFNNYGMHWVRQAPGKGLEWLAALSYEGSKEHYADSLKGRFTVSRDYSRATLHLHMNSLEPEDTAVYFCAKSSKIFYLGESREVDYWGRGTLVTVSS
VL: DIVMTQSPSSLSAFVGDRVTITCRASRDIGGDLSWFQQKPGKAPERLIYAASSLESGVPSRFSGSGSATEFALTITSLQPEDFATYYCLQHKSYPLTFGGGTKVDIK
SARS-CoV2
  Binds to: SARS-CoV2

B6: C122 (antibody, listed as Homo sapiens, V domains shown)
VH: EVQLVESGGGLIQPGGSLRLSCAASGLTVSSNYMSWVRQAPGKGLEWVSVLYSGGSSFYADSVKGRFTISRDNSKNTLYLQMNSLRAEDTAVYYCARESGDTTMAFDYWGQGTLVTVSS
VL: DIQLTQSPSFLSASVGDRVTITCRASQGISSYLAWYQQKPGKAPKLLIYAASTLQSGVPSRFSGSGSGTEFTLTISSLQPEDFATYYCQQLNSDSYTFGQGTKLEIK
SARS-CoV2 S; RBD
  Binds to: SARS-CoV2

B7: C123 (antibody, listed as Homo sapiens, V domains shown)
VH: EVQLVESGGGLIQPGGSLRLSCAASGVTVSRNYMSWVRQAPGKGLEWVSVIYSGGSTYYADSVKGRFTISRDNSKNTLYLQMNSLRAEDTAVYYCARDLSAAFDIWGQGTMVTVSS
VL: DIQLTQSPSFLSASVGDRVTITCRASQGISSYLAWYQQKPGKAPKLLIYAASTLQSGVPSRFSGSGSGTEFTLTISSLQPEDFATYYCQQLNSYPPAFGQGTRLEIK
SARS-CoV2 S; RBD
  Binds to: SARS-CoV2

B8: mBG67 (antibody, listed as Mus musculus, V domains shown)
VH: EVQLVESGGGLVQPGGSLKLSCAASGFTFSNYGMSWVRQTPDKRLELVATINRNGGSTYYLDSVKVRFTISRDNAKSTLFLQLSSLKSDDTAMYYCARIYDFDEDYFDVWGAGTTVTVSS
VL: QIVLTQSPAIMSASLGERVTMTCTASSSVSSSYLHWYQQKPGSSPKLWIYSTSNLASGVPARFSGSGSGTSYSLTISSMEAEDAATYYCLQYHRSPWTFGGGTKLEIK
[1]
  Binds to: NL63

B9: mBG21 (antibody, listed as Mus musculus, V domains shown)
VH: QIQLVQSGPELKKPGETVKISCKASGYTFTDYSMHWVKQAPGKGSKWMGWINTETGEPTYADDFKGRFAFSLETSASTAYLQINNLKNEDTATYFCALRRWGQGTLVTVSS
VL: IVMTQTPKFLLVSAGDRVTITCKASQSVSNDVAWFQQKPGQSPKKLLIYFASNRYTGVPDRFTGSGYGTDFTFTITTVQAEDLAVYFCQQDYSSPWTFGGGTKLEIK
[1]
  Binds to: NL63

B10: mBG57 (antibody, listed as Mus musculus, V domains shown)
VH: QIQLVQSGPELKKPGETVKISCKASGYTFTDYSMHWVKQAPGKGSKWMGWINTETGEPTYADDFKGRFAFSLETSASTAYLQINNLKNEDTATYFCALRRWGQGTLVTVSA
VL: DIVMTQAAPSEPVTPGESVSISCGSSKSLLHSNDNTYLYWFLQRPGQSPQLLIYRMSNLASGVPDRFTGSGSGTAFTLRISRVEAEDVGVYYCMQHLENPLGVRWRHQAGNQT
[1]
  Binds to: NL63

B11: mBG22 (antibody, listed as Mus musculus, V domains shown)
VH: QIQLVQSGPELKKPGETVKISCKASGYTFTDYSMHWVKQAPGKGSKWMGWINTETGEPTYADDFKGRFAFSLETSASTAYLQINNLKNEDTATYFCALRRWGQGTLVTVSA
VL: IVMTQTPKFLLVSAGDRVTITCKASQSVSNDVAWFQQKPGQSPKLLIYFASNRYTGVPDRFTGSGYGTDFTFTITTVQAEDLAVYFCQQDYSSPWTFGGGTKLEIK
[1]
  Binds to: NL63

B12: C120 (antibody, listed as Homo sapiens, V domains shown)
VH: EVQLVESGGGLIQPGGSLRLSCAASGFTVSSNYMTWVRQAPGKGLEWVSLIYPGGSTYYADSVKGRFTISRDNSKNTLYLQMNSLRAEDTAVYYCAREGMGMAAAGTWGQGTLVTVSS
VL: AIRMTQSPSSLSASVGDTVTITCQASQDISKYLNWYQQKPGKAPKLLIYDASNLETGVPSRFSGSGSGTDFTFTISSLQPEDIATYYCQQYDNLPQTFGGGTKVEIK
SARS-CoV2 S; RBD
  Binds to: SARS-CoV2

B13: C124 (antibody, listed as Homo sapiens, V domains shown)
VH: EVQLVESGGGLVQPGGSLRLSCAASGFTFSGYSMNWVRQAPGKGPEWVSYISRSSSTIYYADSVKGRFTISRDNAKNSLYLQMNSLRDEDTAVYYCAREGARVGATYDTYYFDYWGQGTLVTVSS
VL: EIVLTQSPATLSLSPGERATLSCRASQSFSSYLAWYQQKPGQAPRLLIYDASNRATGIPARFSGSGSGTDFTLTISSLEPEDFAVYYCQQRNNWPPEWTFGQGTKVEIK
SARS-CoV2 S; RBD
  Binds to: SARS-CoV2

B14: 2M-7E9 (antibody, listed as Homo sapiens, V domains shown)
VH: EVQLVESGAEVKKPGSSVKVSCKASGGTFSSFAISWVRQAPGQGLEWMGGIIPIFDTTNYAQKFQGRVTITADESTRTAYMELSSLRSEDTAVYYCARIPGWDRGTDRNWNDDWGQGTTVTVSS
VL: DIVMTQSPATLSLSPGERATLSCRASQSVSNFLAWYQQKPGQAPRLLIYDASNRATGIPARFSGSGSGTDFTLTISSLEPEDFAVYYCQQRSNWPPAFTFGPGTKVEIK
SARS-CoV2
  Binds to: SARS-CoV2

B15: 2M-8E7 (antibody, listed as Homo sapiens, V domains shown)
VH: EVQLVESGAEVKKPGSSVKVSCKASGGTFSSYAISWVRQAPGQGLEWMGGIIPIFGTANYAQKFQGRVTVTADESTSTAYMELSSLRSEDTAVYYCARTYSFDSSGYYYDYWGQGTMVTVSS
VL: EIVLTQSPATLSLSPGERATLSCRASQSVSSYLAWYQQKPGQAPRLLIYDASNRATGIPARFSGSGSGTDFTLTISSLEPEDFAVYYCQQRSNWPPKITFGQGTRLEIK
SARS-CoV2
  Binds to: SARS-CoV2

B16: 2M-9F10 (antibody, listed as Homo sapiens, V domains shown)
VH: EVQLLQSGGDLIQPGRSLRLSCAASGFSFEDYAMHWVRQAPGQGLEWVSGISYNGGSIDYVDSVKGRFTISRDNAKNALYLEMNSLRPEDTAFYYCAKDSVRREYTHARVPFDNWGLGTLVTVSS
VL: AIRMTQSPSSLSASVGDRVTISCRATQNINYFLNWYQQKPGRAPKLLIYAASGLQSGVPSRFSGSGTGRVFTLTINSLQPDDFATYYCQQSFVSPRTFGQGTKVDIK
SARS-CoV2
  Binds to: SARS-CoV2

B17: mAb-87 (antibody, listed as Homo sapiens, V domains shown)
VH: QVQLQESGPGLVKPSETLSLTCTVSGGSMNHYYWSWIRQPPGKGLEGIGYTYYSGSTNYNPSLKSRVTISVDASKNQFSLRLSSVTAADTAVYYCARGSQIDLRGGLGATFFDYWGQGTLVTVSS
VL: QSVLTQPASVSGSPGQSITISCTGTSSDVGAYNYVSWYQQHPGKAPKLTVYDVRNRPSGVSNRFSGSKSGNTASLTISGLQAEDEAHYYCSSYTSTNTVFGGGTKLTVL
NL63 S
  Doesn't Bind to: NL63,
SARS-CoV2 S
  Binds to: SARS-CoV2
OC43 S
  Doesn't Bind to: OC43,
SARS-CoV1 S
  Doesn't Bind to: CoV1

B18: mAb-85 (antibody, listed as Homo sapiens, V domains shown)
VH: QVQLQESGPGLVKPSGTLSLTCAVSGGSITSRDWWSWVRQPPGKGLEWIGEVYHSGSTSYNPSLKSRVTISVDKSKNEFSLKLSSVTAADTAVYYCARAGNIVVMPAAQYYFDYWGQGTLVTVSS
VL: EIVLTQSPSSLSASVGDRVTITCRASQDISNYLAWYQQKPGKAPKLLIYAASTLQSGVPLRFSGSGSGTDFTLTISSLQPEDFATYYCLQLHNYSSFGGGTKVDIK
NL63 S
  Doesn't Bind to: NL63,
SARS-CoV2 S
  Binds to: SARS-CoV2
OC43 S
  Doesn't Bind to: OC43,
SARS-CoV1 S
  Doesn't Bind to: CoV1

B19: 2M-4G4 (antibody, listed as Homo sapiens, V domains shown)
VH: EVQLVESGAEVKKPGASVKVSCKASGYTFTSYYIHWVRQAPGQGLEWMGVINPSGGSTTYAQKFQGRVTVTRDTSTSTVYMELSSLRSEDTAVYYCARERGDSSGYYEIITTANRRFGMDVWGQGTTVTVSS
VL: QSVLTQPASVSGSPGQSITISCTGTSSDVGMYNLVSWYQQHPGQAPKLMIYEGSKRPSGVSNRFSGSKSGNTASLTISGLQAEDEAYYYCCSYAVSSTWVFGGGTKLTVL
SARS-CoV2
  Binds to: SARS-CoV2
